Laboratory results reported in patent US8217140B2, “Peptides capable of binding to serum proteins and compounds, constructs and polypeptides comprising the same” (Ablynx N.V., priority 2008, dated 2012).
Positions count from the first letter of the chain named. Values belong to the molecule of their own block, whether it stands above or below them.

Assays:
[1] = cynomolgus monkey, in vivo; for AUCinf / C0: 2 mg/kg
Protocol: The pharmacokinetic profile of the constructs was analyzed in male cynomolgus monkeys of approximately 3 to 4 years old and was compared to the reference (SEQ ID NO:165). The constructs and the control were each injected in three monkeys at a dose of 2 mg/kg via an intravenous bolus injection. Blood samples were taken at predose, 5 min, 20 min, 1 h, 2 h, 4 h, 8 h (test day 1) after administration and at test days 2, 3, 5, 7, 9, 12, 15, 18, 21, 24, 27, 30, 33. In order to obtain at least 1 mL plasma per animal per sampling time, a sufficient volume of whole blood was withdrawn per sampling time. Plasma was collected after whole blood centrifugation for 30 minutes at 2200 g at room temperature (RT). The plasma samples were stored at −80° C. until analysis.
For bioanalytical determination of constructs and control article in monkey plasma, plasma samples were tested for levels of constructs and the control using ELISA based PK assays. The detection of control and constructs in the ELISA assays is based on the binding of these Nanobodies with vWF and the assay set-ups are as such that total vWF-binding Nanobody is detected.
For the reference (SEQ ID NO:165) and the construct of SEQ ID NO:167, 96-well microtiter plates (Maxisorp, Nunc, Wiesbaden, Germany) were coated overnight at 4° C. with neutravidin (Pierce) in 10:10 buffer at 3 μg/ml. Wells were aspirated and blocked for 1 hour at RT with PBS/1% casein. After this blocking step, wells were washed with PBS/0.05% Tween20. A biotinylated bivalent Nanobody against the constructs was added to the neutravidin coated plate at 2 μg/ml in PBS/0.1% casein and incubated for 1 hour at RT. After the incubation step of this capture tool, wells were washed 3 times with PBS/0.05% Tween20.
Preparations of the standards, QC samples and dilutions of the test samples were performed in a non-coated (polypropylene) plate. For the standard curve and QC-samples, solutions at the required concentrations were prepared in PBS/0.1% casein and spiked into 100% monkey plasma. To prepare standards and QC samples, a 1/100 dilution of the pure monkey plasma dilutions was made in IgM-Reducing Agent (Immunochemistry Technologies, Bloomington, USA) supplemented with 2.5% pooled human plasma (referred to as sample diluent). For the test samples, dilution factors for the test samples were estimated, and ranged between 1/100 to 1/9000 for the reference of SEQ ID NO:165 tests and between 1/100 and 12000 for the construct of SEQ ID NO: 167. Samples were diluted 1/100 in sample diluent in a first step, and if needed, further dilution was done in sample diluent supplemented with 1% cynomolgus plasma.
Standards, QC samples and diluted test samples were transferred onto the coated plate and incubated for 1 hour at RT. Afterwards the plates were washed followed by a complexation step with purified vWF (ZLB Behring). vWF diluted to 2.5 μg/ml for the assay for the reference of SEQ ID NO:165 and to 3 μg/ml for the assay for the construct of SEQ ID NO: 167 in PBS/0.1% casein was incubated on the plates for 30 minutes at RT. Plates were washed and Nanobody/vWF complexes bound to the capture tool detected with Rabbit anti-human vWF Ab (Dako, Denmark), diluted 1/2000 in PBS/0.1% casein and incubated for 30 minutes at RT. After washing, a 1/15000 dilution in PBS/0.1% casein of Horse-Radish-Peroxidase labelled goat anti-rabbit Ab (Dako, Denmark) was added to the plate and incubated for 30 minutes at RT. The enzyme coupled to the Ab catalyzes a chemical reaction with the substrate sTMB (3,3′,5,5′-tetramethylbenzidine, SDT reagents, Brussels, Belgium), resulting in a colorimetric change. After stopping this reaction after 10 minutes using HC1 (1N), the intensity of the colour was measured using a spectrophotometer at 450 nm. […]

VWF = experiment: Pharmacodynamic profile: ristocetin cofactor activity assay (% RICO) after i.v. administration; format: in vivo, Cynomolgus monkey; conditions: for Tonset values: estimated, i.v. application; for AUC below T / Time below T: threshold 20% RICO, male Cynomolgus monkey, mean n = 3; for AUC below T / Time below T / Tonset / Toffset: i.v. bolus 2 mg/kg; for Tonset: time % RICO first drops below threshold; for Toffset: time % RICO first returns above threshold; for mean AUC under the threshold increase relative to vWF0001 / time below the threshold increase relative to vWF0001: i.v. bolus
Protocol: For the constructs used in Example 14, pharmacodynamic characteristics upon compound administration were measured by means of a ristocetin cofactor activity assay (Biopool). The ristocetin cofactor activity is a functional assay for VWF, measuring the capacity of VWF to interact with the platelet receptor glycoprotein Ib using ristocetin as a modulator.
For pharmacodynamic data analysis, descriptive statistics (mean and SD) were calculated per dose group and per sampling time point using Microsoft Excel 2007. Response parameters and associated statistics for the overall time course were calculated by noncompartmental analysis of the response-time data using WinNonlin Pro 5.1 (Pharsight Corporation, USA; 2006). The non-compartmental analysis was based on a model for pharmacodynamic data (Model 220). The threshold value was set at 20% based on extensive historical PK/PD data on the vWF-0001 compound. Preclinical studies have shown that a complete inhibition of the pharmacodynamic marker are correlated with full antithrombotic efficacy. The following main pharmacodynamic parameters were determined: time below the threshold (Time below T), area under the threshold (AUC below T), time at which the % RICO first drops below the threshold (Tonset), and time at which the % RICO first returns back above the threshold (Toffset).

human serum albumin = human serum albumin (Homo sapiens, UniProt P02768); experiment: Surface plasmon resonance (BIAcore 3000) of MycHis tagged 2D3-Expedite fusions, Example 10; format: binding; conditions: for binding to HSA compared to 2D3-9GS-56E4-MycHis: FIG. 8A; for ka / dissociation rate constant (koff): Human serum albumin; for ka: chip ~3000 RU
Protocol: (§1) The binding of the resulting 2D3-9GS-56E4-MycHis, 2D3-9GS-59C2-MycHis, 2D3-9GS-59F2-MycHis and 2D3-9GS-59H12-MycHis fusion proteins to human and cynomolgus serum albumin (HSA and CSA respectively) was determined using surface plasmon resonance analysis. For this purpose, binding to HSA and CSA was assessed in BIAcore™ 3000, by injecting concentration series of the fusion proteins ranging from 2 μM to 200 nM on a CM5 chip coated with ˜3000 RU HSA or CSA. Coating of the chip (CM5) was performed by amine coupling using NHS/EDC for activation and ethanolamine for deactivation (Biacore amine coupling kit). HBS-EP was used as flow buffer at a rate of 45 μl min-1. 90 μl of sample was injected for 120 s.

[2] = molecular target: Cynomolgus monkey serum albumin (Macaca fascicularis, UniProt A2V9Z4); experiment: as above; format: binding; conditions: for ka / koff (dissociation rate constant): Cynomolgus monkey serum albumin; for ka: chip ~3000 RU; for binding to CSA compared to 2D3-9GS-56E4-MycHis: FIG. 8B
Protocol: as §1

[3] = tested on: platelet adhesion to fibrillar collagen; experiment: Perfusion experiments: platelet adhesion to collagen at arterial shear rate; format: cell-based, human
Protocol: The perfusion experiments were performed with a single-pass perfusion chamber under non-pulsatile flow conditions using a modified small perfusion chamber with a slit height of 0.1 mm and a slit width of 2 mm. […] Citrated human blood was preincubated at 37° C. for 5 min with or without addition of test compound, and then perfused through the chamber for 5 min at a wall shear rate of 1600 s^−1 using an infusion/withdrawal pump (pump 22, model 2400-004, Harvard Apparatus, Holliston, Mass.). After the perfusion run, the coverslips were rinsed in Hepes buffered saline (10 mM Hepes, 150 mM NaCl, pH 7.4) and platelets were fixed with 5% glutaraldehyde and stained with May-Grünwald and Giemsa. Platelet deposition of the coverslip was evaluated as platelet surface coverage of 10 randomly chosen pictures using light microscopy (Olympus BX61 microscope using Analysis Five digital imaging solutions analysis software).

Chain of Cynomolgus monkey serum albumin (A2V9Z4 25-608): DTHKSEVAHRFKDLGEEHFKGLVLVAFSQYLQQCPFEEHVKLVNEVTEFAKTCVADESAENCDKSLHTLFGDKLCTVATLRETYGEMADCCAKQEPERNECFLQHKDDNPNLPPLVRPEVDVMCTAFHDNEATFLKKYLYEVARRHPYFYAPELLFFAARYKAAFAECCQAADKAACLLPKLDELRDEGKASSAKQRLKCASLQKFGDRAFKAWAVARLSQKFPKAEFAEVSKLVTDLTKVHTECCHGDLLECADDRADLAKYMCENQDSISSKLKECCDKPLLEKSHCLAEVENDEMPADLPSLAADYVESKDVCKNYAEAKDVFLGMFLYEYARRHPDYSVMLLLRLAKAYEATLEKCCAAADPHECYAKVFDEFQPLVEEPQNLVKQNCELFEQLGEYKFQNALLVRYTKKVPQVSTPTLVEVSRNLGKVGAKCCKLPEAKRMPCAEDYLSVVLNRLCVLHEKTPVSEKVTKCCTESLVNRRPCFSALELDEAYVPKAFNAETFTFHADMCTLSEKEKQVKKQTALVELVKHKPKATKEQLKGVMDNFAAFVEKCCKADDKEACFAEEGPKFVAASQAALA

B1: 12A2_sv1-AAA-12A2_sv1 (protein)
chain: DVQLVESGGGLVQPGGSLRLSCAASGRTFSYNPMGWFRQAPGKGRELVAAISRTGGSTYYPESVEGRFTISRDNAKRTVYLQMNSLRAEDTAVYYCAAAGVRAEQGRVRTLPSEYTFWGQGTQVTVSSAAAEVQLVESGGGLVQPGGSLRLSCAASGRTFSYNPMGWFRQAPGKGRELVAAISRTGGSTYYPESVEGRFTISRDNAKRTVYLQMNSLRAEDTAVYYCAAAGVRAEQGRVRTLPSEYTFWGQGTQVTVSS
- plasma level after the initial drop [1]: ~2 µg/mL
- plasma level directly after i.v. injection ([1]; iv): about 45 ug/ml
- AUCinf ([1]; iv): 62.6 µg·h/mL
- C0 ([1]; iv): 45.3 µg/mL
- Tonset values (VWF): ~5 min
- AUC below T (VWF): 6.60 % RICO * h
- Time below T (VWF): 1.21 h
- Tonset (VWF): 0.077 h
- Toffset (VWF): 1.28 h

- binding to HSA compared to 2D3-9GS-56E4-MycHis (human serum albumin): improved binding
- ka (human serum albumin): 3.73E+03 1/ms
- dissociation rate constant (koff) (human serum albumin): 0.00179 s⁻¹
- ka [2]: 2.75E+03 1/ms
- koff (dissociation rate constant) [2]: 0.00213 s⁻¹
- binding to CSA compared to 2D3-9GS-56E4-MycHis [2]: improved binding
B2: 2D3-9GS-59C2-MycHis: SEQ ID NO: 160 (protein)
chain: EVQLVESGGSLVQPGGSLRLSCAASGFTFDDYAMSWVRQVPGKGLEWVSSINWSGTHTDYADSVKGRFTISRNNANNTLYLQMNSLKSEDTAVYYCAKNWRDAGTTWFEKSGSAGQGTQVTVSSGGGGSGGGSAAARDWDFDVFGGGTPVGGAAAEQKLISEEDLNGAAHHHHHH
modifications: Myc-His tag

- binding to HSA compared to 2D3-9GS-56E4-MycHis (human serum albumin): improved binding
- ka (human serum albumin): 6.14E+03 1/ms
- dissociation rate constant (koff) (human serum albumin): 0.00351 s⁻¹
- ka [2]: 4.85E+03 1/ms
- koff (dissociation rate constant) [2]: 0.00504 s⁻¹
- binding to CSA compared to 2D3-9GS-56E4-MycHis [2]: improved binding
B3: 2D3-9GS-59F2-MycHis: SEQ ID NO: 159 (protein)
chain: B2 chain with D138Y
modifications: Myc-His tag

- ka (human serum albumin): 5.02E+03 1/ms
- dissociation rate constant (koff) (human serum albumin): 0.00497 s⁻¹
- ka [2]: 4.01E+03 1/ms
- koff (dissociation rate constant) [2]: 0.00845 s⁻¹
B4: 2D3-9GS-56E4-MycHis: SEQ ID NO: 158 (protein)
chain: B2 chain with D138Y, F141Y
modifications: Myc-His tag

- binding to HSA compared to 2D3-9GS-56E4-MycHis (human serum albumin): improved binding
- ka (human serum albumin): 4.59E+03 1/ms
- dissociation rate constant (koff) (human serum albumin): 0.00304 s⁻¹
- ka [2]: 3.45E+03 1/ms
- koff (dissociation rate constant) [2]: 0.00441 s⁻¹
- binding to CSA compared to 2D3-9GS-56E4-MycHis [2]: improved binding
B5: 2D3-9GS-59H12-MycHis: SEQ ID NO: 161 (protein)
chain: B2 chain with D138S
modifications: Myc-His tag

B6: 12A2_sv1-AAA-12A2_sv1-9GS-59C2-9GS-59C2 (protein)
chain: DVQLVESGGGLVQPGGSLRLSCAASGRTFSYNPMGWFRQAPGKGRELVAAISRTGGSTYYPESVEGRFTISRDNAKRTVYLQMNSLRAEDTAVYYCAAAGVRAEQGRVRTLPSEYTFWGQGTQVTVSSAAAEVQLVESGGGLVQPGGSLRLSCAASGRTFSYNPMGWFRQAPGKGRELVAAISRTGGSTYYPESVEGRFTISRDNAKRTVYLQMNSLRAEDTAVYYCAAAGVRAEQGRVRTLPSEYTFWGQGTQVTVSSGGGGSGGGSRDWDFDVFGGGTPVGGGGGGSGGGSRDWDFDVFGGGTPVGG
- Vdss lower relative to vWF0001 [1]: 19 fold
- dominant half-life (t½ dominant) increase relative to vWF0001 [1]: 158 fold
- mean CL decrease compared to the control [1]: 67 fold
- AUCinf ([1]; iv): 4140 µg·h/mL
- C0 ([1]; iv): 69.4 µg/mL
- Effective concentration compared to VWF0001 ([3]; FIG. 12): similar
- inhibition of platelet adhesion to fibrillar collagen at arterial shear rate ([3]; citrated human blood, wall shear rate 1600 s^−1, FIG. 12): dose-dependently and completely inhibit
- Tonset values (VWF): ~5 min
- mean AUC under the threshold increase relative to vWF0001 (VWF): 259 fold
- time below the threshold increase relative to vWF0001 (VWF): 167 fold
- AUC below T (VWF): 1709 % RICO * h
- Time below T (VWF): 202 h
- Tonset (VWF): 0.079 h
- Toffset (VWF): 202 h

B7: 12A2_sv1-9GS-59C2-9GS-12A2_sv1 (protein)
chain: DVQLVESGGGLVQPGGSLRLSCAASGRTFSYNPMGWFRQAPGKGRELVAAISRTGGSTYYPESVEGRFTISRDNAKRTVYLQMNSLRAEDTAVYYCAAAGVRAEQGRVRTLPSEYTFWGQGTQVTVSSGGGGSGGGSRDWDFDVFGGGTPVGGGGGGSGGGSEVQLVESGGGLVQPGGSLRLSCAASGRTFSYNPMGWFRQAPGKGRELVAAISRTGGSTYYPESVEGRFTISRDNAKRTVYLQMNSLRAEDTAVYYCAAAGVRAEQGRVRTLPSEYTFWGQGTQVTVSS
- Vdss lower relative to vWF0001 [1]: 12 fold
- dominant half-life (t½ dominant) increase relative to vWF0001 [1]: 70 fold
- mean CL decrease compared to the control [1]: 22 fold
- AUCinf ([1]; iv): 1320 µg·h/mL
- C0 ([1]; iv): 48.9 µg/mL
- Tonset values (VWF): ~5 min
- mean AUC under the threshold increase relative to vWF0001 (VWF): 57 fold
- time below the threshold increase relative to vWF0001 (VWF): 33 fold
- AUC below T (VWF): 379 % RICO * h
- Time below T (VWF): 39.9 h
- Tonset (VWF): 0.079 h
- Toffset (VWF): 40.0 h
